Experimental data reported in the DeepSol protein solubility set.

Test: soluble on expression in E. coli; label from the status in PepcDB or PDB records

Sequence	soluble on expression in E. coli
SEESVKPVPKHANHRRSSVRSSLYGDVRDLWSTATMSTANVSVSDVCEDFDEEGKSVRNRIRKYSQTISIRDSLNLEPEEIQQQARRELELCHGRSLEHGEDHEESETSLASSTSESLIFSLWKPHRTYWTEQQNRLPLPLMELMETEVLDILKKALITYRSTIGRNHFMTKELQGYIEGIRKRRNKRLYFLDQ	soluble
MAHERAGQLAQPQDLIDIAEVVTAYYTRTPDADNPDQQVAFGTSGHRGSSLDTAFNENHILAITQAIVEYRAQHHIGGPIFIGRDTHALSEPAMISALEVLLAHGIEVLVDDRGRYTPTPAVSHAILAYNAQRSDSSQYSDGIVITPSHNPPRDGGFKYNPPNGGPADTDATDWIADRANTLLREGLVSVKRTSVTGVLDPRAHRHNYMENYIADLPNVVDIDAIRNSGLAIGADPMGGASVDYWGAIAEKHSLNLTVVNPLVDATWRFMTLDTDGKIRMDCSSPDSMASLVHNRTKYDIATGNDADADRHGIVTPDAGLMNPNHYLAVAIDYLFSHRPQWNSSTAVGKTLVSSSMIDRVVADLGRKLVEVPVGFKWFVPGLVDGSVGFGGEESAGASFLRHNGTVWSTDKDGIILDLLASEITAVTGKTPSQRYEELAARFGSPAYARTDAPATREQKAVLKKLSPEQVTATELAGEAITAKLTTAPGNGAAIGGLKVTTENAWFAARPSGTEDKYKIYAESFLGADHLAMVQREAQNLVSDVL	not soluble
MGSDKIHHHHHHMNYPSLVWHLKRTELFADFELAELEQVAATTPYRSYQPGEVIYRMDDPADALYFVRSGLVKISKLFPNGKEAILGVVGQHDTFGELLLQPEERRPTQAEALERTTLIVLPRQELQKLLSTKPDLAMKLIRLMAARLFEAQAWTATVSAYSAPERVASLLYRLAREFGRPHSQGVELNLKLNQEDIARMVGATRETVSHSLSRLKKGGAIVRARSPIIVQMDALKAFIDQEH	not soluble
SLRSIMTPRGEISWVDAEQSEDEIRRQLLSSPHSLFPVCRGELDEIIGIVRAKEMLVALESGENVAALASASPAIVVPETLDPINLLGVLRRARGSFVIVTNEFGVVQGLVTPLDVLEAIAGEFPDADETPEIVIDGDGWLIKGSTDLHALQQALGLDPLINDDEDIATVAGLVISANGHIPRIGDVVSLPPLHFTVVEANDYRVDLVRAVVTRPPSDEEE	not soluble
MSDVQSSLTGTWYNELNSKMELTANKDGTLTGKYLSKVGDVYVPYPLSGRYNLQPPAGQGVALGWAVSWENSKIHSATTWSGQFFSESSPVILTQWLLSSSTARGDVWESTLVGNDSFTKTAPTEQQIAHAQLHCRAPRLK	soluble
GAPLKAVSAFAPPLHTQDFNLYSGEVHAHFTDYEAGMAFARQENKPVLLDFSGHGCVNCRKMENAVWIDPTVKSMLEKDYVLITLMVDEKKPLAEPLTIVFDGKEKTLRTVGDKWSYLQSHKFGANAQPFYVAIDHEGKPLSASYSYNEDVPLYVDFLKGGLQEFKKRKNK	not soluble
MKVVILGSGSYSGTPKPLCNCENCSIARRNPAFRRTRFSLYIEEGKILVDPSPDLHYHLERLNKKVENVFITHAHFDHIFGVPDLQVYKKLIISSNTLGIKVAKELSRLAFGSEVPSGYEWRYEELQFWNEYSFDNFRVIHFPVIHSLEIAGGYLFEIKGRRIGVTGDTGPEILKDEKVKKLLEGVDILIVEMTKRESIPGVHLGVSDSIEFAKVVGASYTVFAHISHTNYSHEVLEKRVRESGVQGEVARDFTIIEVLEHHHHHH	not soluble
MVKPDWWIREMARKGMIEPFEERLVREGVISYGLSSFGYDLRAAPEWKIFTNVFSSLVDPKNFDPKSFVEYEGEEVVIPPNSFALTRSLEYIRMPDNVIAIALGKSTYARCGIVVNVTPLEPGWEGHVTLEISNTTPLPAKVYAGEGIVQLLFLEGPRPEVTYRDRKGKYQGQKGITLPRV	soluble
MIEINNLSKRYRNKQIFNHLTMSFDSNRLTVLLGDNGAGKSTLLRMIAGIEKANDGTINYFGEKWNQRQIQNHIGYVPQDIALFEHMTVAENIKFFKSLCKNPINDTTINEYLQQLNFDDTSAKVSTLSGGNKRKINILVGLLGQPRILILDEPTVGIDLKSRHDIHQLLNIMKSKCLIILTTHHLDEVEALADDIKLIGQDPFYQHVLEDKQWTYTYY	not soluble
MVAVERVESLAKSGIISIPKEYIRPKEELESINDVFLEEKKEDGPQVPTIDLKNIESDDEKIRENCIEELKKASLDWGVMHLINHGIPADLMERVKKAGEEFFSLSVEEKEKYANDQATGKIQGYGSKLANNASGQLEWEDYFFHLAYPEEKRDLSIWPKTPSDYIEATSEYAKCLRLLATKVFKALSVGLGLEPDRLEKEVGGLEELLLQMKINYYPKCPQPELALGVEAHTDVSALTFILHNMVPGLQLFYEGKWVTAKCVPDSIVMHIGDTLEILSNGKYKSILHRGLVNKEKVRISWAVFCEPPKDKIVLKPLPEMVSVESPAKFPPRTFAQHIEHKLFGKEQEELVSEKND	soluble
MGSDKIHHHHHHMRTFRLVIACPDRVGIVAKVSNFLASHNGWITEASHHSDNLSGWFFMRHEIRADTLPFDLDGFREAFTPIAEEFSMDWRITDSAQKKRVVLMASRESHCLADLLHRWHSDELDCDIACVISNHQDLRSMVEWHDIPYYHVPVDPKDKEPAFAEVSRLVGHHQADVVVLARYMQILPPQLCREYAHQVINIHHSFLPSFVGAKPYHQASLRGVKLIGATCHYVTEELDAGPIIEQDVVRVSHRDSIENMVRFGRDVEKMVLARGLRAHLEDRVLVHDNKTVVFD	not soluble
MSLVESLADLEEEKKKNILSSGNGEIDKRLGGGIPLGSLTLIEGENDTGKSVLCQQFVYGGLMSGHNIAYYTTENTIKSFLRQMESLSLDVSDFYAWGYLRVFPVHLEGIDWSTEQMRSILNLVANHIKTIRENIAIIDSLTMFTTYSTEDDVLEFLTRLKNLCDNGKTILITLHQHAFKEDTLVRIRSACDCHLFLRKEQVGDRYVSVLEVSKIRGARKTTGNIVSFEVHPGFGLKIIPVSEARAEGHHHHHH	soluble
MGSDKIHHHHHHMKLMIGKLFWDTGASMPCYPSLENDMICDMLVVGSGEAGAQIAYSLVKMGMRVTLIEKNMISCGSTAANTGLLQFLHDKSLTSLIHTFGEEKGVRAYKLCYEALRTMEKVVPTLDIDPQFIPRNSLYYASKSEDVSFLQEEYKTLQNYEFPVEYFTASDIKERYPFTRQAALYTHGDAEVNPYLLAHSLLHKANQMGANIYEHTEAIHIKKRQNDLICYTKTGNQIVAKNIIMATGYEALFGKKEKNTTVETSYAVVTNKVDSFEGWHEQSLIWETARPYLYFRTYENRIIVGGLDEAMKIQTIGDTKLLHKRDVLINIIKEMFPQYKDIQAEYYWAAAFGGSHDGLPILKEDNKIHNLFYALPYGGNGTVYGMVFAKIFEQLFTNKESEDFSLFNR	not soluble
MGSDKIHHHHHHMDNDSTPRGTVCVTGATGYVGGRLVPRLLDHGWRVRALVRTPAKLLCRPWARHPRLDIIRGDLDDACSLVPALEGCDAVFYLVHSMNPHVTGRDTFAKADRAAASNMVRACDEARPGRIIYLSGLVPEGEELSPHLRSRAEVADILARGETPLTVLRAAQILGSGSASFEMVRYLVDRLPVMLTPRWVHSLCQPIAISNVLGYLEGCLDHPETMGQTYDIGGPDILSYRELFDIFAEVAQLRRRTIIPVPVLSPELSAHWINLVTPIPKALATPLIQGLRNRVVCADDRIRDIIPQRLLSCREAIGKALDRVREQSVPTCWTDAGRPDMPEWMTCGDASYAGGDLLECAYAIQVEAPPETVWKPVSAIGGETGWYHGDLLWRLRGMLDKLVGGPGLRRGRRHPTDIGVGDALDFWRVLDVRPGERLLLLAEMKVPGDALLEFRLAPTATGGTELWMLSWFLPRGLAGLAYWWALYPLHKGLFKGMLCGLAAATGAPVSREPWALPPRREFACALPLTDASAPGRRDTTAQ	not soluble
MTDAAEEVLLGKKGCTGVITLNRPKFLNALTLNMIRQIYPQLKKWEQDPETFLIIIKGAGGKAFCAGGDIRVISEAEKAKQKIAPVFFREEYMLNNAVGSCQKPYVALIHGITMGGGVGLSVHGQFRVATEKCLFAMPETAIGLFPDVGGGYFLPRLQGKLGYFLALTGFRLKGRDVYRAGIATHFVDSEKLAMLEEDLLALKSPSKENIASVLENYHTESKIDRDKSFILEEHMDKINSCFSANTVEEIIENLQQDGSSFALEQLKVINKMSPTSLKITLRQLMEGSSKTLQEVLTMEYRLSQACMRGHDFHEGVRAVLIDKDQSPKWKPADLKEVTEEDLNNHFKSLGSSDLKFAENLYFQ	soluble
MAHHHHHHMKGGKQKFDRAIHKTEGMDGALPNEVLEPLEEVYKPSLRVDVTAEPPEENENSTGTTPVTSVTPHVSTNIFVAGLPPSWDENDLRKKFQEFGEIISTRLVRQRHFAFVMFRRPESAHAAINATHLTHPTPNSSMFLHVSIAMHDEGVDEIPNDRIFIRGLPQWANKDHLRHCFSRFGSIVDSAVLMNPLGQCKGSGFVQFSSIDEATEAIKARKTIRIENWDAELEIKYSETAEVRQQRQERNKNRQRHSPKYGQHQLQYQLFNSSASVVSPIPAFPVLGMSAPFPFFYPRPALSPAASPHIIYSPMVPSPVVPVYPSPPVVFKSKLDLFPSSGDLLFTGVSLTESTLLSLLQCYGKVESKDIFDDAGAAVRMVDRGLHAIIVQQLNGTIFPDGKVMSVVLYP	not soluble
MGSDKIHHHHHHMSGKPAARVTDPTTCPVPGHGSNPIVQGSPDVVFDGLPAARQGDASACGSPMISAVSSTVLINGLPAVTLGSIGAHGNVVIGGSGTVLIGDVFTPAPRAPALPLNRNSVPCSGRFQLIDHETGKPVAGRRVRVWSSGGWNAFDTTDADGMTSWIERPTAEILYIDLVQRCDA	not soluble
HLDAIQNFGAMDILCTDKTGTLTQDKIVLENHTDVSGKVCERVLHAAWLNSHYQTGLKNLLDTAVLEGVELDAARGLAERWQKVDEIPFDFERRRMSVVVKEDDAAHQLICKGALQEILNVSTQVRYNGDIVPLDDTMLRRIRRVTDTLNRQGLRVVAVATKYLPAREGDYQRADESDLILEGYIAFLDP	not soluble
MAYLYELEGIYAQLQSMDLDEETFQDTLDSIDFQSDLENNIEYFVKMLKNVQADAEKYKAEKEAFYKKQKQAEAKAEKYKETIRLAMELSQKKKVDAGMFKVSLRRSKKVEILDETKIPLDYMQEKIEYKPMKAEISKALKSGIDISGVELIETESLQVK	not soluble
AWQVNTAYTAGQLVTYNGKTYKCLQPHTSLAGWEPSNVPALWQLQ	soluble
SEWNLRRMESELRQINPDLLQPSKSFKKPSSGTITINVGGYLYAAQRHTLAKHPGSLLEEMVTGKKPVLHVDSMGNTFIDRDGPIFRHILNFLRLGELVLPEDFKETELLRREANFYRLSELAQALQDWEQQQATQREPAFLEVTDSHERSQGLRVYCSDNTFIEKVKNRLVQISKSRLDGFPEEFEVSSNIIQFRHFIKSEQGSRLVLKQDSTFLCTLECLKLETVMLALKGGFRLITSLDSSRGSVVQCEALHFVK	soluble
MEEIPEHEGYKFRVARPRTDFRGTHQYASPNAHMLIELGRHDDIWSLMYMVAESFVELPWTRCEETEVEHYMNQSTILRLFSDEKNPTRLNADMRRQLDEIDSMLKASKYYDSPNYDAVYQFFKDSMAKAKVTWDTPFDWEIGNTLSEETSKGVKRKMGGPWENPGLFFTVLQ	not soluble
MEKKKVAEWLAQGSIAVPKLLLGHYKQLGLGEGELVLLLHMQSFFEEGVLFPTPAELAERMTVSAAECMEMVRRLLQKGMIAIEEHTDEQGIRNEKYTLEPLWEKLVHHLYTQAAQQGELGRQEEEES	soluble
